This note sets out measurements from patent publication US20220273573A1, “SOLID DISPERSION GENISTEIN COMPOSITIONS AND METHODS OF MAKING AND USING THE SAME” (priority 2020, published 2022).

This experiment relates to mice exposed to bilateral whole-body irradiation. The experiment can be described thus: Prophylactic efficacy, 180-day survival after whole-body irradiation. The class given is in vivo. The conditions noted are these: single subcutaneous injection 0.3 mg/kg 24 hours after 9.2 Gy whole-body irradiation. As to the method:
In another study, selected samples of Example 3 were each orally administered at 200 mg Genistein/kg twice per day to groups of mice for 6 consecutive days. A separate vehicle control and genistein group was included for each sample formulation. The mice were then exposed to bilateral whole-body irradiation at a dose of 9.2 Gy at 0.6 Gy/min and the 180-day survival rate was observed. As additional controls, an injectable suspension (200 mg Genistein/kg) and corresponding vehicle were also administered to groups of mice via intramuscular injection 24 hours prior to exposure to bilateral whole-body irradiation at a dose of 9.2 Gy at 0.6 Gy/min. A separate group of mice was also administered a single subcutaneous injection of Neulasta® (0.3 mg/kg), an FDA-approved radiation treatment drug, 24 hours after exposure to bilateral whole-body irradiation at a dose of 9.2 Gy at 0.6 Gy/min. The results of this study are shown in Table 5 as percentage of surviving animals, and the number of surviving animals compared to the total number of animals in the study and depicted in FIG. 3.

B1: Neulasta ®: an FDA-approved radiation treatment drug, single subcutaneous injection (protein, UniProt P09919 31-207, looked up)
Granulocyte …: TPLGPASSLPQSFLLKCLEQVRKIQGDGAALQEKLVSECATYKLCHPEELVLLGHSLGIPWAPLSSCPSQALQLAGCLSQLHSGLFLYQGLLQALEGISPELGPTLDTLQLDVADFATTIWQQMEELGMAPALQPTQGAMPAFASAFQRRAGGVLVASHLQSFLEVSYRVLRHLAQP
modifications: pegfilgrastim; PEG, N-terminal Met
notes: an FDA-approved radiation treatment drug, single subcutaneous injection
On to B1, for which the “180-Day Survival” value was 56% (9/16).
